How the values were obtained:
[1] = target: T1, human CD160 (CD160 GPI isoform) on cells (human, UniProt O95971 25-159, GPI anchor); assay: flow cytometry, percentage of labelled YT2C2 NK cells (2x10^5 cells), antibody 0.39 to 50 nM [panel C]
T1 construct: whole, on cells; Used for all cells said to carry human CD160: transfected CHO-S and E300 cells and cells that carry it naturally (YT2C2, blood NK, CD8+ T, T CD4, CLL cells); also called hCD160; CHO-S-hCD160 (clone 2G10)
T1 sequence (looked up): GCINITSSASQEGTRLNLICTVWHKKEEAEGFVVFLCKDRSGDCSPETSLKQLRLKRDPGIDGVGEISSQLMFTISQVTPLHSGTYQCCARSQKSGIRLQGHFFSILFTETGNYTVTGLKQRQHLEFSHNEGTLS
Protocol: (§1) The binding capacity of the anti-CD160 H7 antibody and of the H7 D12 variant in the IgG4, Fab and Fab-linker Fab format was evaluated during the labelling of surface CD160 expressed naturally on a clone of NK cell line (YT2C2), by measuring the percentage of cell labelled=percentage of binding (see FIG. 1C). For this, 2×10⁺⁵ YT2C2 cells were labelled with increasing concentration of antibodies (from 50 nM to 0.39 nM) and also with the appropriate control isotype. […] In FIG. 1C, IgG4 variants ELB01103 and ELB01104 bind more efficiently to the YT2C2 cells than the H7 IgG4 ELB01101 (which results in a EC₅₀ increased by a factor of 10 compared with H7 IgG4). This is also true for the Fab-linker-Fab format ELB01132. By contrast Fab format ELB01122 bind less efficiently to the YT2C2 cells than the H7 IgG4 ELB01101 (which results in a EC₅₀ decreased by a factor of 2 compared with H7 IgG4). This is certainly due to the monovalency of the Fab format.

[2] = target: T1, human CD160 (CD160 GPI isoform) on cells; assay: flow cytometry, percentage of labelled YT2C2 NK cells, antibody 0.39-50 nM; the text means better binding
Protocol: as §1

[3] = target: T2, recombinant human CD160 protein, soluble form, with a C-terminal tag of 6 histidine residues (R&D SYSTEMS) (human, UniProt O95971 27-159, limits assumed, biotinylated with EZ-Link sulfo-NHS-LC-biotin for BLI and ELISA; not biotinylated when immobilised on the CM5 chip for SPR); assay: BLI
T2 construct: domain: soluble form; Bought protein; also called hCD160-his; biotinylated CD160
T2 sequence: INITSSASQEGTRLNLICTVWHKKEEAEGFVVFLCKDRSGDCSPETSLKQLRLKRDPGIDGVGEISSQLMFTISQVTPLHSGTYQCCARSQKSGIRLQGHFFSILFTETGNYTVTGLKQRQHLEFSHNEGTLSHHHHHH

[4] = target: T2, recombinant human CD160 protein, …; assay: SPR (Biacore), design close to Example 2
[5] = target: T2, recombinant human CD160 protein, …; assay: BLI, biotinylated CD160 at 10 nM on streptavidin sensor, antibody 3.13-100 nM
Protocol: The dissociation constants and the association (kₒₙ) and dissociation (kdis) rate constants for each antibody were calculated by applying a 1:1 interaction model, with overall mathematical modelling of curves (fit) (Rmax bound by the sensor) on the ForteBio 9.0 data analysis software.

[6] = target: T2, recombinant human CD160 protein, …; assay: BLI (repeats Table 7)
[7] = target: T1, human CD160 (CD160 GPI isoform) on cells; assay: flow cytometry on CHO-hCD160 transfectants
How it was run: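 Recombinant CHO-S-hCD160 cells (clone 2G10) and non-transfected CHO-S cells (5×10^5) were labelled with 2 μg of each antibody or matching isotype control. Binding was read by flow cytometry as median fluorescence index.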

B1: D12 IgG4 S228P/R409K (antibody)
heavy: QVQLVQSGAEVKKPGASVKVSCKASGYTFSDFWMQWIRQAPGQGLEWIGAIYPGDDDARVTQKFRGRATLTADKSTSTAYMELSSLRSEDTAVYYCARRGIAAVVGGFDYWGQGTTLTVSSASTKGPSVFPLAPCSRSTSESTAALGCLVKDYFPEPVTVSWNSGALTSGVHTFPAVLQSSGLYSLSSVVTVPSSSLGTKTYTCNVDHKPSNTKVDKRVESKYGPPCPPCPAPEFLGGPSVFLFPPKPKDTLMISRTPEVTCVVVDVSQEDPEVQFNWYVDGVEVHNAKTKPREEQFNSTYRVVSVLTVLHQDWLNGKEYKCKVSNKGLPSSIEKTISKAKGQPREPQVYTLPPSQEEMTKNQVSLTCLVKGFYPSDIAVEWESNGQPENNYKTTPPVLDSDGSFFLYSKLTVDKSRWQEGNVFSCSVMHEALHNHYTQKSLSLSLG
light: EIVLTQSPATLSLSPGERATLSCRASQSISNHLHWYQQKPGQAPRLLIKYASQSISGIPARFSGSGSGTDFTLTISSLEPEDFAVYFCQQSNSWPLTFGGGTKVEIKRTVAAPSVFIFPPSDEQLKSGTASVVCLLNNFYPREAKVQWKVDNALQSGNSQESVTEQDSKDSTYSLSSTLTLSKADYEKHKVYACEVTHQGLSSPVTKSFNRGEC
notes: also called ELB01103; H7 IgG4 D12
EC50 (read off the curve) [1]: ~3 nM | EC50, factor against H7 IgG4 (ELB01101) [2]: 10 fold | Gain in KD/respective IgG [3]: 1.7 fold | Gain in KD/respective IgG [4]: 3.1 fold | Kd [4]: 4.2 nM | koff [4]: 0.00122 s⁻¹ | kon [4]: 292000 M⁻¹ s⁻¹ | Kd [5]: 1.52 nM | koff [5]: 0.000752 s⁻¹ | kon [5]: 494000 M⁻¹ s⁻¹ | Kd [6]: 1.52 nM | koff [6]: 0.000752 s⁻¹ | kon [6]: 494000 M⁻¹ s⁻¹ | median fluorescence, factor against H7 IgG4 ELB01101 [7]: 2 fold
